From article doi:10.1101/2024.04.22.590536 (bioRxiv, 2024)
Where no end group is shown, it is not given here.

Target: T1, GST-tagged Ifh1 activation domain (AA 703-811) (S. cerevisiae, UniProt P39520 703-811)
T1 sequence (looked up): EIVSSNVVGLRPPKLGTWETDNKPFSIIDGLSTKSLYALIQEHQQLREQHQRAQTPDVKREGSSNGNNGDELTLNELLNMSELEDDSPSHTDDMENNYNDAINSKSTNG
Test: fluorescence polarisation

Q: How did the Kd turn out when NNNSRNNFNNRRGGRGARKGNNTANATNSANTVQKNRNIDVSNLPSLA (peptide, UniProt P39015 226-273, looked up, also: TAMRA label, position not given here) [TAMRA-labelled Stm1-IDR peptide (AA 226-273)] was run?
A: ~1.4 µM
